Values quoted from earlier work, collected in patent US20180228866A1, “COMPOSITIONS” (Sigmoid Pharma Limited, priority 2015, published 2018).

System: serum TNF-α, IFN-γ, IL-6
Conditions: within 1-4 hours after injection

In the case of “OKT3: anti-CD3 mAb, administered as a systemic immunosuppressive agent during organ transplantation”, the “serum levels of proinflammatory cytokines such as TNF-α, IFN-γ, and IL-6” value is given as “markedly elevated”.
